Data: patent publication US20250353911A1 (INHIBRX BIOSCIENCES, published 2025)
Values belong to the binder of their own block, whether it stands above or below them.

Tests used:
[1] = target: T1, human FcRn/B2m heterodimer protein (human, UniProt P55899 24-297; P61769 21-119, limits assumed); test: ELISA on coated human FcRn/B2m heterodimer, pH 7.4, HRP detection antibody, A450
T1 construct: also called FcRn (ELISA)
Procedure: 96-well ELISA plates were coated with human FcRn/B2m heterodimer protein in PBS overnight at 4° C., washed with PBST and then blocked with 3% BSA in PBST for 1 h at RT. Serial dilutions of test articles were prepared in PBST pH 7.4 and added to the plates. Plates were incubated for 1 h at room temperature. After the incubation cells were washed in the PBST and then incubated for 1 h at room temperature with a horse radish peroxidase (HRP)-conjugated antibody detecting the polypeptides. Plates were washed with PBS-T followed by addition of TMB substrate and color allowed to develop. TMB substrate was stopped with an equal volume of stop solution (1M H₂SO₄). Absorbance at 450 nm was measured with a 96 well plate reader (Emax, Molecular Devices). All data were plotted and analyzed using GraphPad Prism analysis software.

[2] = target: T2, human FcRn extracellular domain (ECD) fused to a transmembrane domain and an intracellular citrine, with … (human); test: flow cytometry, HEK 293 cells transiently expressing human FcRn ECD-TM-citrine and B2M, pH 6; blocked ligand: biotinylated human IgG at 1 µM, detected with streptavidin-AF647
T2 construct: also called human FcRn overexpressed on CHO cells; FcRn transfected CHO cells
Procedure: 50,000 transiently transfected HEK 293 cells were plated in 96-well plates and resuspended in 20 mM His, 150 mM NaCl, pH 6. Serial dilutions of test articles were prepared at 2× the final concentration in the buffer described above and added to the cell suspensions. Plates were incubated for 60 minutes at 4° C. […] Cells were then washed in the buffer described above and subsequently incubated for 30 minutes at 4° C. with a fluorescently labeled (AF647) streptavidin to detect IgG binding to FcRn. Binding of streptavidin to cells expressing FcRn (citrine positive) was measured after a final wash using an iQue Screener (Sartorius). The data were plotted and analyzed using GraphPad Prism analysis software.

[3] = target: T3, Human serum albumin (HSA) (human, UniProt P02768 25-609); test: ELISA, albumin coated, sdAb fusion titrated, anti-human Fc HRP
T3 construct: also called human albumin; recombinant human albumin
T3 sequence (P02768 25-609): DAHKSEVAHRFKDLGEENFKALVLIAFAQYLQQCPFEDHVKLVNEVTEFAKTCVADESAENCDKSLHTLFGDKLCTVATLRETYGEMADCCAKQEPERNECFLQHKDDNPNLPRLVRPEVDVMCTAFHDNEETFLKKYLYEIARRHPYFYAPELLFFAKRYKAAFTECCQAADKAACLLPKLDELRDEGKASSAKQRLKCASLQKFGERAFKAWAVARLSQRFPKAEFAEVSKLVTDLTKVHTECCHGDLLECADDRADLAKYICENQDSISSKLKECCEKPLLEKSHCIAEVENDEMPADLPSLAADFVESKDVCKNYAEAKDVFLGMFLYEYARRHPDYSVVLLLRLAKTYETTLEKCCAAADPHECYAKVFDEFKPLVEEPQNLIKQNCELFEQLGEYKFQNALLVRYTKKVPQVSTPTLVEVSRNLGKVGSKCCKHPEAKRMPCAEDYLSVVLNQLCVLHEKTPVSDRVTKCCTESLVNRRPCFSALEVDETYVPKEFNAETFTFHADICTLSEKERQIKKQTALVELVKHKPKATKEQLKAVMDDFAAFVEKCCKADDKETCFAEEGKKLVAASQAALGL
Procedure: (§1) Medisorp plates were coated with albumin protein at 2 μg/ml, 50 μl/well at 4° C. overnight (human, murine, and rat albumin-Sigma, cynomolgus monkey albumin-Abcam). 1× Fish Gelatin (blocking agent, Bethyl Laboratories) was added to albumin-coated wells followed by a 1 hour incubation at RT. Titrations of sdAb fusion proteins (starting at 100 nM, across 1:3 or down 1:4) were added and incubated for 1 hour at RT. Plates were washed 3 times with 0.1% D-PBST, and then anti-human Fc HRP antibody (1:2000 in 0.1% D-PBST, Jackson) was added and incubated for 30 minutes at RT. Plates were washed 3 times with 0.1% D-PBST, and then TMB substrate was added. Absorbance at 650 nm was read on a plate reader (Molecular Devices) and data were plotted using equation one site-total binding (Model: Y=Bmax*X/(Kd+X)+NS*X+Background, GraphPad Prism).

[4] = target: T4, Murine serum albumin (MSA) (mouse, UniProt P07724 25-608); test: as above
T4 construct: Bought protein (Sigma); also called murine albumin; mouse albumin
Procedure: as §1

[5] = target: T5, Cynomolgus monkey serum albumin (CSA) (cynomolgus monkey, UniProt A2V9Z4 25-608); test: as above
T5 construct: Bought protein (Abcam); also called cynomolgus monkey albumin
T5 sequence (A2V9Z4 25-608): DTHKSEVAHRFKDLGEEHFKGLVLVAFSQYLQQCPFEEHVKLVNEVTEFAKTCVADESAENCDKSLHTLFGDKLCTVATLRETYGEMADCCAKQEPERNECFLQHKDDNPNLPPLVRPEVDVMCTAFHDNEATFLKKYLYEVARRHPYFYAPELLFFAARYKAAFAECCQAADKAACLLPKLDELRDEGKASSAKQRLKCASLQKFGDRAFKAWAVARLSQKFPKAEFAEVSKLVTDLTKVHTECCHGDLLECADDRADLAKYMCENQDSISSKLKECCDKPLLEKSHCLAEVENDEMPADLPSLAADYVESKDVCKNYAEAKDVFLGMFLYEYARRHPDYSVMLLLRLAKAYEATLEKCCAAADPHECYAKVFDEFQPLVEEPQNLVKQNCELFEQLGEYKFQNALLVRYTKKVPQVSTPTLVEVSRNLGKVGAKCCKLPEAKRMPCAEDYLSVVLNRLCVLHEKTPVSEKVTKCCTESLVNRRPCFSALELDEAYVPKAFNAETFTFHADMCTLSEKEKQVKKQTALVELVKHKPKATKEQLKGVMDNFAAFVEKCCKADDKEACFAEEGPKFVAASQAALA
Procedure: as §1

Rat serum albumin (RSA) [6] = target: T6, Rat serum albumin (RSA) (rat, UniProt P02770 25-608); test: as above
T6 construct: Bought protein (Sigma); also called rat albumin
T6 sequence (P02770 25-608): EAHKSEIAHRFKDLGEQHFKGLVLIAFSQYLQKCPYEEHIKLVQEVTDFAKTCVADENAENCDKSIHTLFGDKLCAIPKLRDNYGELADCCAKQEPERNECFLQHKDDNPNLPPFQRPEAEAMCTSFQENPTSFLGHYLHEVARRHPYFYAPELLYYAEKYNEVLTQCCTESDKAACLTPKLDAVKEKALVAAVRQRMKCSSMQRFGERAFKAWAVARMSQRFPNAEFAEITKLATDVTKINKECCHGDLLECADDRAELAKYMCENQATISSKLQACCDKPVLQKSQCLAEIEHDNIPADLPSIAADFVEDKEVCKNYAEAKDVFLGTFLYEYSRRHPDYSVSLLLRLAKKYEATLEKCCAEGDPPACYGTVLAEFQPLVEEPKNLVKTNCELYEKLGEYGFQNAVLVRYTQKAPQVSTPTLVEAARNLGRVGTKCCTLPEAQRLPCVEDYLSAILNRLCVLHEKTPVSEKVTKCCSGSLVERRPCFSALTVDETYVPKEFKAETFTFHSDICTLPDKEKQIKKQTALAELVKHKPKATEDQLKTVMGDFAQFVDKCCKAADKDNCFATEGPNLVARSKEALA
Procedure: as §1

Rat serum albumin (RSA) [7] = target: T6, Rat serum albumin (RSA); test: ELISA on coated rat albumin, anti-human Fc HRP, A650, one site-total binding fit
Procedure: as §1

[8] = target: T3, Human serum albumin (HSA); test: ELISA on coated human albumin, anti-human Fc HRP, A650, one site-total binding fit
Procedure: as §1

[9] = target: T4, Murine serum albumin (MSA); test: ELISA on coated murine albumin, anti-human Fc HRP, A650, one site-total binding fit
Procedure: as §1

[10] = target: T5, Cynomolgus monkey serum albumin (CSA); test: ELISA on coated cynomolgus monkey albumin, anti-human Fc HRP, A650, one site-total binding fit
Procedure: as §1

Rat serum albumin (RSA) [11] = target: T6, Rat serum albumin (RSA); test: ELISA on coated rat albumin, anti-human Fc HRP, A650, one site-total binding fit; remark: listed apart in the source
Procedure: as §1

[12] = target: T3, Human serum albumin (HSA); test: ELISA on coated human albumin, anti-human Fc HRP, A650, one site-total binding fit; remark: listed apart in the source
Procedure: as §1

[13] = target: T4, Murine serum albumin (MSA); test: ELISA on coated murine albumin, anti-human Fc HRP, A650, one site-total binding fit; remark: listed apart in the source
Procedure: as §1

[14] = target: T5, Cynomolgus monkey serum albumin (CSA); test: ELISA on coated cynomolgus monkey albumin, anti-human Fc HRP, A650, one site-total binding fit; remark: listed apart in the source
Procedure: as §1

[15] = target: T7, Mouse Fc-tagged human albumin domain III (human, UniProt P02768 405-609, limits assumed); test: biolayer interferometry, mouse Fc-tagged human albumin domain III (10 ug/ml) on anti-mouse IgG Fc biosensor, pH 5
T7 construct: also called albumin domain 3 (mouse Fc tagged); albumin domain 3; not shown: mouse Fc tag
T7 sequence (P02768 405-609 limits assumed): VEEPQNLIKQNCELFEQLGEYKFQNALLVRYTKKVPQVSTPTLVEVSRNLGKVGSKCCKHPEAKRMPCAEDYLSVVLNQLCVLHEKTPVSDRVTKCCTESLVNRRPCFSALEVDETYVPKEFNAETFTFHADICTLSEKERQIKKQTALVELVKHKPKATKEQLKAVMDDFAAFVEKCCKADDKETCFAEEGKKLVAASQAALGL

[16] = target: T3, Human serum albumin (HSA); test: ELISA on coated human albumin, pH 7.4, HRP detection antibody, A450
Procedure: (§2) 96-well ELISA plates were coated with albumin protein in PBS overnight at 4° C., washed with PBS-T and then blocked with 5% milk powder in PBS-T for 1 h at room temperature. Serial dilutions of test articles were prepared in PBS pH 7.4 or a buffer containing 20 mM His, 150 mM NaCl, pH 5.5 and added to the plates. Plates were incubated for 1 h at room temperature. After the incubation cells were washed in the respective buffer and then incubated for 30 min at room temperature with a HRP-conjugated antibody detecting the polypeptides. Plates were washed in their respective buffers and TMB substrate was added and color allowed to develop. TMB substrate was stopped with an equal volume of stop solution (1M H₂SO₄). Absorbance at 450 nm was measured with a 96 well plate reader.

[17] = target: T3, Human serum albumin (HSA); test: ELISA on coated human albumin, pH 5.5, HRP detection antibody, A450
Procedure: as §2

[18] = target: T3, Human serum albumin (HSA); test: as above; remark: listed apart in the source
Procedure: as §2

[19] = target: T8, human FcRn on primary human monocytes (PBMC) (human, UniProt P55899 24-365; P16213 21-119); test: flow cytometry, fixed and permeabilized human PBMC, gated monocytes, pH 6, AF647 detection antibody
T8 construct: Endogenous FcRn (with endogenous beta-2 microglobulin) in fixed and permeabilized human PBMC; also called FcRn-expressing human monocytes; FcRn on PBMC subpopulations
Procedure: (§3) Isolated human PBMC were plated in 96-well plates at 120,000 cells per well and washed with PBS, pH 7.4. Cells were stained with Zombie Aqua to exclude dead cells and with specific fluorescently labeled antibodies against surface lineage markers (CD14, CD16, CD3, CD56, CD19 and HLA-DR) to allow gating on different PBMC subpopulations. After the surface marker staining, cells were fixed and permeabilized using a Foxp3/Transcription Factor Fixation/Permeabilization kit (eBioscience™) according to the manufacturer's recommended protocol. Cells were then resuspended in the buffers described above to generate pH 7.4 or pH 6 conditions and test article staining was carried out as described for CHO cells. After the final wash, binding to FcRn on PBMC subpopulations (Monocytes, B cells or T cells) was measured on a Novocyte-Quanteon Flow Cytometer (Agilent).

[20] = target: T8, human FcRn on primary human monocytes …; test: flow cytometry, fixed and permeabilized human PBMC, gated monocytes, pH 7.4, AF647 detection antibody
Procedure: as §3

[21] = target: T2, human FcRn extracellular domain (ECD) …; test: flow cytometry, CHO cells transiently expressing human FcRn ECD-TM-citrine and B2M, pH 6, AF647 detection antibody
Procedure: (§4) Binding of anti-FcRn VHH polypeptides to human FcRn at neutral (7.4) or endosomal (6) pH was tested by flow cytometry using a CHO-based overexpression system or isolated human peripheral blood mononuclear cells (PBMC).
(§5) CHO cells were plated in 96-well plates at 50,000 cells per well and resuspended in PBS, pH 7.4 or a buffer containing 20 mM His, 150 mM NaCl, pH 6. Serial dilutions of test articles were prepared at 2× the final concentration in the buffers described above (pH 7.4 or pH 6) and added to the cell suspensions. Plates were incubated for 60 minutes at 4° C. After the incubation cells were washed in the respective buffer and then incubated for 30 minutes at 4° C. with a fluorescently labeled (AF647) antibody detecting the VHH polypeptides. Binding of the detection antibody to FcRn on transfected cells (citrine positive) was measured after a final wash using an iQue Screener (Sartorius).

[22] = target: T2, human FcRn extracellular domain (ECD) …; test: as above; remark: listed apart in the source
Procedure: as §4, §5

[23] = target: T2, human FcRn extracellular domain (ECD) …; test: flow cytometry, CHO cells transiently expressing human FcRn ECD-TM-citrine and B2M, pH 7.4, AF647 detection antibody
Procedure: as §4, §5

[24] = target: T2, human FcRn extracellular domain (ECD) …; test: as above; remark: listed apart in the source
Procedure: as §4, §5

EC50 (read off the curve) [1]: ~0.07 nM
IC50 (read off the curve) [2]: ~3 nM
B1: cx11385 (B10a.v1 VHH x B10a.v1 VHH x hz4A01v51 VHH) (bispecific antibody)
chain: EVQLLESGGGEVQPGGSLRLSCTASGSIANVDMMAWHRQAPGKQREPIAVINDGGSTSYADSVKGRFTISRDNAKNTLYLQMSSLRAEDTAVYYCNTATWRGGERYADWGQGTLVTVKPGSGGGSEVQLLESGGGEVQPGGSLRLSCTASGSIANVDMMAWHRQAPGKQREPIAVINDGGSTSYADSVKGRFTISRDNAKNTLYLQMSSLRAEDTAVYYCNTATWRGGERYADWGQGTLVTVKPGSGGGSEVQLVESGGGEVQPGGSLRLSCAASGFTFSTSGMVWVRQAPGKGLEWVSTISDDARITVYAESVKGRFTISRDNAKNTVYLQMNSLRAEDTAVYYCATYRAGSRIGSYEDYYRGQGTLVTVKPGG

Kd [3]: < 0.3 nM
maximal binding [3]: > 90%
Kd [4]: < 0.3 nM
maximal binding [4]: > 90%
Kd [5]: < 0.3 nM
maximal binding [5]: > 90%
Kd (Rat serum albumin (RSA) [6]): < 0.3 nM
maximal binding (Rat serum albumin (RSA) [6]): > 90%
Kd (Rat serum albumin (RSA) [7]): 0.234 nM
Kd [8]: 0.195 nM
Kd [9]: 0.207 nM
Kd [10]: 0.189 nM
B2: cx5009 (hz4A01v51-NNT-hFc) (Fc fusion)
chain: EVQLVESGGGEVQPGGSLRLSCAASGFTFSTSGMVWVRQAPGKGLEWVSTISDDARITVYAESVKGRFTISRDNAKNTVYLQMNSLRAEDTAVYYCATYRAGSRIGSYEDYYRGQGTLVTVKPGGGGPSVFLFPPKPKDTLMISRTPEVTCVVVDVSHEDPEVKFNWYVDGVEVHNAKTKPREEQYNSTYRVVSVLTVLHQDWLNGKEYKCKVSNKALPAPIEKTISKAKGQPREPQVYTLPPSRDELTKNQVNLTCLVKGFYPSDIAVEWESNGQPENNYKTTPPVLDSDGSFFLNSTLTVDKSRWQQGNVFSCSVMHEALHNHYTQKSLSLSPGSGGGGSGGGGS
notes: also called humanized hz4A01v51; hx4A01v51

Bmax (Rat serum albumin (RSA) [11]): 1.24 A650
Kd (Rat serum albumin (RSA) [11]): 0.144 nM
Kd (Rat serum albumin (RSA) [7]): 0.182 nM
Bmax [12]: 1.34 A650
Kd [12]: 0.105 nM
Kd [8]: 0.171 nM
Bmax [13]: 1.26 A650
Kd [13]: 0.114 nM
Kd [9]: 0.193 nM
Bmax [14]: 1.27 A650
Kd [14]: 0.113 nM
Kd [10]: 0.162 nM
binding result [15]: no binding
B3: 4A01-NNT-hFc (Fc fusion)
chain: QVQLQESGGGLVQPGGSLRLSCAASGFAFSTSGMVWVRQATGKGLEWVSTISDDSRIIRYADSVNGRFTISRDNAENTLYLLMNSLKPEDTAVYYCATYRAGSRIGSYEDYYRGQGTQVTVSSGGPSVFLFPPKPKDTLMISRTPEVTCVVVDVSHEDPEVKFNWYVDGVEVHNAKTKPREEQYNSTYRVVSVLTVLHQDWLNGKEYKCKVSNKALPAPIEKTISKAKGQPREPQVYTLPPSRDELTKNQVNLTCLVKGFYPSDIAVEWESNGQPENNYKTTPPVLDSDGSFFLNSTLTVDKSRWQQGNVFSCSVMHEALHNHYTQKSLSLSPG
notes: Monomeric sdAb-Fc fusion (Fc S364N, Y407N, K409T = NNT); also called 1m4A01; anti-albumin sdAb 4A01

EC50 (read off the curve) [16]: ~0.3 nM
EC50 (read off the curve) [17]: ~0.06 nM
EC50 (read off the curve) [18]: ~0.06 nM
EC50 (read off the curve) [19]: ~5 nM
EC50 (read off the curve) [20]: ~4 nM
EC50 (read off the curve) [21]: ~0.4 nM
EC50 (read off the curve) [22]: ~0.4 nM
EC50 (read off the curve) [23]: ~0.5 nM
EC50 (read off the curve) [24]: ~0.5 nM
B4: cx11558 (B10a.v2.1 VHH x hz4A01v51 VHH) (bispecific antibody)
chain: EVQLLESGGGEVQPGGSLRLSCAASGSIANVDLMAWHRQAPGKQREPIAVINDAGSTYYAESVKGRFTISRDNAKNTLYLQMNSLRAEDTAVYYCNTATWRGGERYADWGQGTLVTVKPGSGGGSEVQLVESGGGEVQPGGSLRLSCAASGFTFSTSGMVWVRQAPGKGLEWVSTISDDARITVYAESVKGRFTISRDNAKNTVYLQMNSLRAEDTAVYYCATYRAGSRIGSYEDYYRGQGTLVTVKPGG
